Data reported in the RNAGym collection of RNA variant scans (doi:10.1093/molbev/msab373).

B1: Azoarcus group I ribozyme (parent)
chain: GUGCCUUGCGCCGGGAAACCACGCAAGGGAUGGUGUCAAAUUCGGCGAAACCUAAGCGCCCGCCCGGGCGUAUGGCAACGCCGAGCCAAGCUUCGGCGCCUGCGCCGAUGAAGGUGUAGAGACUAGACGGCACCCACCUAAGGCAAACGCUAUGGUGAAGGCAUAGUCCAGGGAGUGGCGAAAGUCACACAAACCGG

Variants of: B1
Assay: reverse-splicing fitness (ratio to wild type); higher = more active; in vitro selection; Mg2+ level not given
Summary of the method: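 An in vitro group I ribozyme library with randomized positions was T7-transcribed and gel-purified. In triplicate, 10 pmol RNA in EPPS pH 7.5 was reacted with 50 pmoles of a 30-nt RNA substrate for 1 h at 37 °C across several added MgCl2 levels (1–48 mM), then stopped with EDTA. Products were reverse transcribed from a substrate-complementary primer, PCR-amplified and sequenced (HiSeq 4000). Fitness is a variant's read proportion after selection over that before, normalised to wild type.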
GUGCCUUGCGCCGGGAAACCACGCAAGGGAUGGUGUCAAAUUCGGCGAAACCUAAGCGCCCGCCCGGGCGUAUGGCAACGCAGAGCCAAGCUUCGGCGCCUGCGCCGAUGAAGGUGUAGCGACUAGACGGCACCCACCUAAGGCAAACGGUAUGGUGAAGGCAUAGUCGAGGGAGCGGCGAAAGUCACACAAACCGG gave a reverse-splicing fitness of 0.00601.
GUGCCUUGCGCCGGGAAACCACGCAAGGGAUGGUGUCAAAUUCGGCGAAACCUAAGCGCCCGCCCGGGCGUAUGGCAACGCAGAGCCAAGCUUCGGCGCCUGCGCCGAUGAAGGUGUAGCGACUAGACGGCACCCACCUAAGGCAAACGGUAUGGUGAAGGCAUAGUCGAGGGAGAGGCGAAAGUCACACAAACCGG gave a reverse-splicing fitness of 0.00779.
GUGCCUUGCGCCGGGAAACCACGCAAGGGAUGGUGUCAAAUUCGGCGAAACCUAAGCGCCCGCCCGGGCGUAUGGCAACGCAGAGCCAAGCUUCGGCGCCUGCGCCGAUGAAGGUGUAGCGACUAGACGGCACCCACCUAAGGCAAACGGUAUGGUGAAGGCAUAGUCGAGGGAGGGGCGAAAGUCACACAAACCGG gave a reverse-splicing fitness of 0.00605.
GUGCCUUGCGCCGGGAAACCACGCAAGGGAUGGUGUCAAAUUCGGCGAAACCUAAGCGCCCGCCCGGGCGUAUGGCAACGCAGAGCCAAGCUUCGGCGCCUGCGCCGAUGAAGGUGUAGCGACUAGACGGCACCCACCUAAGGCAAACGGUAUGGUGAAGGCAUAGUCUAGGGAGAGGCGAAAGUCACACAAACCGG gave a reverse-splicing fitness of 0.00617.
With GUGCCUUGCGCCGGGAAACCACGCAAGGGAUGGUGUCAAAUUCGGCGAAACCUAAGCGCCCGCCCGGGCGUAUGGCAACGCAGAGCCAAGCUUCGGCGCCUGCGCCGAUGAAGGUGUAGCGACUAGACGGCACCCACCUAAGGCAAACGGUAUGGUGAAGGCAUAGUCGAGGGAGUGGCGAAAGUCACACAAACCGG the reverse-splicing fitness was 0.00866.
Variant GUGCCUUGCGCCGGGAAACCACGCAAGGGAUGGUGUCAAAUUCGGCGAAACCUAAGCGCCCGCCCGGGCGUAUGGCAACGCAGAGCCAAGCUUCGGCGCCUGCGCCGAUGAAGGUGUAGCGACUAGACGGCACCCACCUAAGGCAAACGGUAUGGUGAAGGCAUAGUCAAGGGAGUGGCGAAAGUCACACAAACCGG has a reverse-splicing fitness of 0.0112.
With GUGCCUUGCGCCGGGAAACCACGCAAGGGAUGGUGUCAAAUUCGGCGAAACCUAAGCGCCCGCCCGGGCGUAUGGCAACGCAGAGCCAAGCUUCGGCGCCUGCGCCGAUGAAGGUGUAGCGACUAGACGGCACCCACCUAAGGCAAACGGUAUGGUGAAGGCAUAGUCUAGGGAGUGGCGAAAGUCACACAAACCGG the reverse-splicing fitness was 0.0104.
GUGCCUUGCGCCGGGAAACCACGCAAGGGAUGGUGUCAAAUUCGGCGAAACCUAAGCGCCCGCCCGGGCGUAUGGCAACGCAGAGCCAAGCUUCGGCGCCUGCGCCGAUGAAGGUGUAGCGACUAGACGGCACCCACCUAAGGCAAACGGUAUGGUGAAGGCAUAGUCAAGGGAGCGGCGAAAGUCACACAAACCGG gave a reverse-splicing fitness of 0.0129.
Variant GUGCCUUGCGCCGGGAAACCACGCAAGGGAUGGUGUCAAAUUCGGCGAAACCUAAGCGCCCGCCCGGGCGUAUGGCAACGCAGAGCCAAGCUUCGGCGCCUGCGCCGAUGAAGGUGUAGCGACUAGACGGCACCCACCUAAGGCAAACGGUAUGGUGAAGGCAUAGUCAAGGGAGGGGCGAAAGUCACACAAACCGG has a reverse-splicing fitness of 0.00817.
Variant GUGCCUUGCGCCGGGAAACCACGCAAGGGAUGGUGUCAAAUUCGGCGAAACCUAAGCGCCCGCCCGGGCGUAUGGCAACGCAGAGCCAAGCUUCGGCGCCUGCGCCGAUGAAGGUGUAGCGACUAGACGGCACCCACCUAAGGCAAACGGUAUGGUGAAGGCAUAGUCAAGGGAGAGGCGAAAGUCACACAAACCGG has a reverse-splicing fitness of 0.0126.
With GUGCCUUGCGCCGGGAAACCACGCAAGGGAUGGUGUCAAAUUCGGCGAAACCUAAGCGCCCGCCCGGGCGUAUGGCAACGCAGAGCCAAGCUUCGGCGCCUGCGCCGAUGAAGGUGUAGCGACUAGACGGCACCCACCUAAGGCAAACGGUAUGGUGAAGGCAUAGUCCAGGGAGUGGCGAAAGUCACACAAACCGG the reverse-splicing fitness was 0.0157.
For GUGCCUUGCGCCGGGAAACCACGCAAGGGAUGGUGUCAAAUUCGGCGAAACCUAAGCGCCCGCCCGGGCGUAUGGCAACGCAGAGCCAAGCUUCGGCGCCUGCGCCGAUGAAGGUGUAGCGACUAGACGGCACCCACCUAAGGCAAACGAUAUGGUGAAGGCAUAGUCUAGGGAGGGGCGAAAGUCACACAAACCGG, the reverse-splicing fitness was 0.00644.
GUGCCUUGCGCCGGGAAACCACGCAAGGGAUGGUGUCAAAUUCGGCGAAACCUAAGCGCCCGCCCGGGCGUAUGGCAACGCAGAGCCAAGCUUCGGCGCCUGCGCCGAUGAAGGUGUAGCGACUAGACGGCACCCACCUAAGGCAAACGAUAUGGUGAAGGCAUAGUCCAGGGAGAGGCGAAAGUCACACAAACCGG showed a reverse-splicing fitness of 0.0151.
Work on GUGCCUUGCGCCGGGAAACCACGCAAGGGAUGGUGUCAAAUUCGGCGAAACCUAAGCGCCCGCCCGGGCGUAUGGCAACGCAGAGCCAAGCUUCGGCGCCUGCGCCGAUGAAGGUGUAGCGACUAGACGGCACCCACCUAAGGCAAACGAUAUGGUGAAGGCAUAGUCCAGGGAGCGGCGAAAGUCACACAAACCGG yielded a reverse-splicing fitness of 0.0248.
Variant GUGCCUUGCGCCGGGAAACCACGCAAGGGAUGGUGUCAAAUUCGGCGAAACCUAAGCGCCCGCCCGGGCGUAUGGCAACGCAGAGCCAAGCUUCGGCGCCUGCGCCGAUGAAGGUGUAGCGACUAGACGGCACCCACCUAAGGCAAACGAUAUGGUGAAGGCAUAGUCCAGGGAGGGGCGAAAGUCACACAAACCGG has a reverse-splicing fitness of 0.00826.
